The values below come from article PMC7111720.

The target of data set [1] is T1, p22 (Tomato chlorosis virus (isolate AT80/99), UniProt Q001T4 1-193).
T1 sequence: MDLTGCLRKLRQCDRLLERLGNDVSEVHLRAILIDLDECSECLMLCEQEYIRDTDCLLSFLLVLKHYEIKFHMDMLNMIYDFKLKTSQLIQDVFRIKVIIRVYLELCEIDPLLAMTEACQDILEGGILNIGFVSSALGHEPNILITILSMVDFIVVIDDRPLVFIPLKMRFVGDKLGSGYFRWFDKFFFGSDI
The data set can be described thus: EMSA. Background: A gel shift assay detects complexes by their altered migration in electrophoresis.

Data set [2] concerns the target T1, p22. The data set can be described thus: EMSA. The source holds these as a separate data set.

Where two headings read alike, the source gives them in different places.

B1: 21 nt small dsRNA, DIG (dsRNA)
RNA 1: ACUGGAGUUGUCCCAAUUCUU
RNA 2: GAAUUGGGACAACUCCAGUGA
modifications: 3'-DIG on antisense strand
For B1, the binding result in the data set with p22 [1] is reported as “no binding”.

B2: 21 nt small dsRNA, free 3' OH (dsRNA)
RNA 1: ACUGGAGUUGUCCCAAUUCUU
RNA 2: GAAUUGGGACAACUCCAGUGA
Turning to B2, in the data set with p22 [2], the binding result was “no binding”.
